The term Kd denotes a measure of binding affinity in units of concentration. A low value points to tighter binding.

The values below come from patent US20230416326A1 (LETO LABORATORIES, published 2023).

The target of test [1] is T1, IL-2/15R β and γ on Mo7e cells (UniProt P14784 27-551; P31785 23-369, limits assumed).
T1 sequence (looked up) 1: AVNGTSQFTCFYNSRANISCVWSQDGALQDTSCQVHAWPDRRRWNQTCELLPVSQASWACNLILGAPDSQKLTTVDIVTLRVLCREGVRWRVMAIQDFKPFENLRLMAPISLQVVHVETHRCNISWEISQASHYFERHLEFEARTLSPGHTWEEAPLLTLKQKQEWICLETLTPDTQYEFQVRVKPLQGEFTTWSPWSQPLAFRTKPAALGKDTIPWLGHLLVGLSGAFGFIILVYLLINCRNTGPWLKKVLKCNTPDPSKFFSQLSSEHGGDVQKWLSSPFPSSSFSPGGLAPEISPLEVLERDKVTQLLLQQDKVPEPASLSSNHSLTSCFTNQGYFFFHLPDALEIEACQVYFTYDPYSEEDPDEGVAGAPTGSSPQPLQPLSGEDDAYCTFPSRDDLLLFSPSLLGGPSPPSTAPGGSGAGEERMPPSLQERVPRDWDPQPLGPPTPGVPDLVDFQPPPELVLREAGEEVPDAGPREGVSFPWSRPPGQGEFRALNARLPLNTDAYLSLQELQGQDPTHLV
T1 sequence (looked up) 2: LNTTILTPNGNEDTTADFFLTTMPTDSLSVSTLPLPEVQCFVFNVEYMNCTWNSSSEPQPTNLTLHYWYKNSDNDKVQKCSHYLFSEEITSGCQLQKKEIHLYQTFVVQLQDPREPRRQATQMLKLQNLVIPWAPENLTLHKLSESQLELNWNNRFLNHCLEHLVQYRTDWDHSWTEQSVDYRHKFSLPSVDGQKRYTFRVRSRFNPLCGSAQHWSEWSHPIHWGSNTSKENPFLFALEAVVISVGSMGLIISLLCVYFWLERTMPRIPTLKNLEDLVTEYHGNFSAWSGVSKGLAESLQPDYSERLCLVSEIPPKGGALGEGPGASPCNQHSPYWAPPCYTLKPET
Briefly: cell-based or functional assay.

The next test deals with T2, IL-15Rα-his (Homo sapiens (Human), UniProt Q13261 31-205, limits assumed).
T2 construct: also called interleukin-15 receptor alpha; not shown: his tag
Briefly: BLI (Octet RED96), receptor immobilised on sensor. The method, then: (§1) BLI was used to determine the affinity of a target protein for a receptor by a method with reference to (Estep, P et al., High throughput solution Based measurement of antibody-antigen affinity and epitope binning. MAbs, 2013.5 (2): p. 270-8). The receptor proteins IL-15Rα-his, IL2Rα-his, and IL2/15Rβ-Fc/Fc used in the experiment were each produced by the company of the present application, and both an IL-2 derivative without IL2Rα binding and an IL-2 complex without IL2Rα binding were prepared according to the description in Patent Publication CN111018961A. An IL-15(N72D)/Sushi-hIgG1Fc complex was prepared according to the literature (K.-p. Han et al./Cytokine 56 (2011) 804-810). A buffer was prepared according to the following formula: 10 mM HEPES, 150 mM NaCl, 3 mM EDTA, 0.1% BSA, and 0.05% tween20. Receptor proteins were each pre-immobilized in advance on a corresponding sensor. Then the steps of baseline, loading, baseline, association, and dissociation were conducted according to the established method (see Estep, P et al., High throughput solution Based measurement of antibody-antigen affinity and epitope binning. MAbs, 2013. 5 (2): p. 270-8). Data acquisition and analysis were conducted using the Fortebio Octet RED96 software Data acquisition 11.0 and Data analysis 11.0, respectively. Results are shown in Table 1 (the smaller the value, the stronger the affinity).

A further test has as its target T3, IL2/15Rβ-Fc/Fc (UniProt P14784 27-240).
T3 construct: Made in-house; The label 'Fc/Fc' is not explained; it is read here as one receptor-Fc chain paired with an Fc-only chain; also called IL2Rβ; CD122; not shown: Fc; second Fc chain implied by the label 'Fc/Fc'
Briefly: BLI (Octet RED96), receptor immobilised on sensor. How it is done: as §1
(In general: Biolayer interferometry detects binding as a change in optical thickness at a sensor tip.)

For the next test, the target named is T4, IL2Rα-his (UniProt P01589 22-240, limits assumed).
T4 construct: Made in-house; also called interleukin-2 receptor alpha; CD25; not shown: his tag
T4 sequence (looked up): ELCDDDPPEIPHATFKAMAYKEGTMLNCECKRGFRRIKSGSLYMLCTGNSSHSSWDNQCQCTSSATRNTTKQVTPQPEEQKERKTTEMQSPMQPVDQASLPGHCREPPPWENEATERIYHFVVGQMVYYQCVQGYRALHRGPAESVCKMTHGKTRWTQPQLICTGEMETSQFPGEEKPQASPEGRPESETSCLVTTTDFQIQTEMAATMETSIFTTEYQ
Briefly: BLI (Octet RED96), receptor immobilised on sensor. How it is done:
as §1

For the next test, the target named is T5, Sushi-hIgG4Fc.
T5 construct: IL15Rα Sushi domain fused to human IgG4 Fc; also called Sushi-Fc
Put plainly: co-expression in HEK293, purification, SEC-HPLC. How it is done:
The IL-2/15 chimera 1 was co-expressed with each of the Sushi-hIgG1Fc, Sushi-hIgG4Fc, and Sushi-mlgg2aa.1Fc, and heterodimer complexes could be generated during expression, which were respectively named as complex 1, complex 2, and complex 3 and all carried an Fc tag. Mabselect sure (Protein A, GE healthcare) was used for affinity purification, and a purification method was in accordance with instructions of a purification packing. Then further purification was conducted by gel filtration chromatography (GFC) (Superdex200 […], GE Healthcare) to obtain a protein with high purity, and the aggregate was removed. The purity analysis was conducted using a high-performance liquid chromatography (HPLC) molecular sieve column (SEC-HPLC), and the results are shown in FIGS. 1A-1C.
(In general: In gel filtration, larger molecules generally elute earlier.)

B1: Complex 3 (heterodimer complex of IL-2/15 chimera 1 and Sushi-mIgG2aa.1Fc) (Fc fusion)
chain 1: APTSSSTKKTQLQLEHLLLDLQMILNGIQSMHIDATLYTESDVHPSCKVTAMKCFLLELQVISLESGDASIHDTVENLIILANNSLSSNGNVTESGCKECEELEEKNIVEFLNRFITFAQSIISTLT
chain 2: ITCPPPMSVEHADIWVKSYSLYSRERYICNSGFKRKAGTSSLTECVLNKATNVAHWTTPSLKCIREPRGPTIKPCPPCKCPAPNAEGAPSVFIFPPKIKDVLMISLSPIVTCVVVDVSEDDPDVQISWFVNNVEVHTAQTQTHREDYNSTLRVVSALPIQHQDWMSGKEFKCKVNNKQLPSSIERTISKPKGSVRAPQVYVLPPPEEEMTKKQVTLTCMVTDFMPEDIYVEWTNNGKTELNYKNTEPVLDSDGSYFMYSKLRVEKKNWVERNSYSCSVVHEGLHNHHTTKSFSRTPGK
notes: also called IL-2/15 chimera 1-Sushi-Fc
Turning to B1, the “EC50 (nM), promotion of Mo7e cell proliferation” value in test [1] worked out at 0.319 nM. In addition, the binding result with IL-15Rα-his and in the test with IL2Rα-his was “no binding (tested: 100 nM)” throughout. The affinity with IL2/15Rβ-Fc/Fc, expressed as Kd, was 0.512 nM.

B2: IL-2/15 chimera 1 (ligand)
chain: APTSSSTKKTQLQLEHLLLDLQMILNGIQSMHIDATLYTESDVHPSCKVTAMKCFLLELQVISLESGDASIHDTVENLIILANNSLSSNGNVTESGCKECEELEEKNIVEFLNRFITFAQSIISTLT
notes: also called modified IL-2 molecule
Take B2: the “EC50 (nM), promotion of Mo7e cell proliferation” value in test [1] worked out at 2.25 nM. Moreover, the Kd with IL-15Rα-his was determined as 3.89 nM; in the test with IL2/15Rβ-Fc/Fc it was 973 nM. Besides, the binding result with IL2Rα-his was “no binding (tested: 100 nM)”.

B3: IL-2/15 chimera 2 (ligand)
chain: APTSSSTKKTQLQLEHLLLDLQMILNGIQSMHIDATLYTESDVHPSCKVTAMKCFLLELQVISLESGDASIHDTVENLIILANNSLSSNGNVTESGCKECEELEEKNIVEFLNRWITFAQSIISTLT
notes: Chimera 1 with F at position 115 mutated back to W; position 115 corresponds to position 121 of natural IL-2
Take B3: the binding result with Sushi-hIgG4Fc is “binds”.
